Consider 8 molecules from patent publication US20140356359A1 (RINAT NEUROSCIENCE, published 2014).

By Kd is commonly meant the constant that tells how readily two partners part at equilibrium. The term koff denotes the first-order rate constant of dissociation. High values mean a short-lived complex, low ones a long-lived complex. The kon is a measure of how fast the partners come together. A lower kon goes with slower complex formation.

Test [1] deals with full-length cyno GHR on transfected HEK293 cells (cynomolgus monkey). The test is described as follows: cell-based or functional assay.
Chain of full-length cyno GHR on transfected HEK293 cells (cynomolgus monkey) (Q9XSZ1 other isoform, or with tags, fused parts or gaps limits assumed): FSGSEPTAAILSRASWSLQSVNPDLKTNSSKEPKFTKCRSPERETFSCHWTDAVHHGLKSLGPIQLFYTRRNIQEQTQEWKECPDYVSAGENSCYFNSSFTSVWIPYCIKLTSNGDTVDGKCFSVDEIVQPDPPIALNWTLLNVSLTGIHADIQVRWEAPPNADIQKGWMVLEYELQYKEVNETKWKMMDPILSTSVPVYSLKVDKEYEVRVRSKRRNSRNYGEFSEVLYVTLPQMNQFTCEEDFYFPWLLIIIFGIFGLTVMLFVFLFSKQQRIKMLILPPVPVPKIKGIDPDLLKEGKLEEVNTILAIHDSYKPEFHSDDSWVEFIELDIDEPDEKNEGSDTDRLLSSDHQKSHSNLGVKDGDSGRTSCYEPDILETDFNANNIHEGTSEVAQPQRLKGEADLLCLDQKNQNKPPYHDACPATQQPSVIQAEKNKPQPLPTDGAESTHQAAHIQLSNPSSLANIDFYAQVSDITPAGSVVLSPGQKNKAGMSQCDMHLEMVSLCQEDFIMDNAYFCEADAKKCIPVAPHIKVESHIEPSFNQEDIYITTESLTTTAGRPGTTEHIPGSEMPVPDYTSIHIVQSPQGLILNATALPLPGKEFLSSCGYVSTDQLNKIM
Test [2] deals with T1, human GHR (as in Tables 1 and 2) (human, UniProt P10912 49-253, limits assumed).
T1 sequence: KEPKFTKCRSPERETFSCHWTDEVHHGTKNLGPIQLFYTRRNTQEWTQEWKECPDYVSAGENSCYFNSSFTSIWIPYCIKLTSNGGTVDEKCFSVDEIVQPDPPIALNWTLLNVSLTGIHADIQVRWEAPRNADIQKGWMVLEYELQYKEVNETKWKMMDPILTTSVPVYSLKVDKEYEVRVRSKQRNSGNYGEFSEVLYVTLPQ
The test is described as follows: Biacore, 37 C (asterisk).

Test [3] deals with T2, human GHR, his-tagged monomer of amino acids 31-235 of the extracellular domain (human, UniProt P10912 49-253).
T2 construct: not shown: his tag
T2 sequence: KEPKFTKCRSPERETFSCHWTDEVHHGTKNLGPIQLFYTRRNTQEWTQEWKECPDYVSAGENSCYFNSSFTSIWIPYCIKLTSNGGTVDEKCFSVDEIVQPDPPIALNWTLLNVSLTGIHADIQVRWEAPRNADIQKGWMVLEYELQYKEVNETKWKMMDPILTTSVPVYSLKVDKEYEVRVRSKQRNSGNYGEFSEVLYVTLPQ
The test is described as follows: Biacore T200, Fab captured on anti-human kappa, GHR as analyte, 37 C. Here is the method:
(§1) An anti-human kappa sensor chip was prepared by activating all flow cells of a Biacore™ CM4 sensor chip with a 1:1 (v/v) mixture of 400 mM EDC and 100 mM NHS for 7 minutes, at a flow rate of 10 μL/min. […] All flow cells were blocked with 100 mM ethylenediamine in 150 mM borate buffer pH 8.5 for 7 minutes at 10 μL/min.
(§2) The kinetics assay was run using a methodology with varying dissociation times as described in Katsamba et al., supra. Fabs were captured onto downstream flow cells (flow cells 2, 3 and 4) at 2 μg/mL at a flow rate of 10 μL/min for 2 minutes. Different Fabs were captured on each flow cell. Flow cell 1 was used as a reference surface. Following capture of fabs, analyte (buffer, human GHR or cyno GHR) was injected at 30 μL/min on all flow cells for two minutes. […] A 6-membered dilution series of GHR was analyzed using this method, where the top concentration was 400 nM and the dilution factor was 3-fold. Buffer cycles were collected with both 30 minute and 60 second dissociation times for double-referencing purposes. The double-referenced sensorgrams were fit globally to a simple 1:1 Langmuir with mass transport binding model.
(§3) The experiments were performed at 37° C. using a running buffer of 10 mM HEPES, 150 mM NaCl, 0.05% (v/v) Tween-20™, pH 7.4.

Test [4] has as its target T3, cyno GHR, his-tagged monomer of amino acids 31-235 of the extracellular domain (cynomolgus monkey, UniProt Q9XSZ1 49-253 (Papio anubis entry)).
T3 construct: not shown: his tag
T3 chain: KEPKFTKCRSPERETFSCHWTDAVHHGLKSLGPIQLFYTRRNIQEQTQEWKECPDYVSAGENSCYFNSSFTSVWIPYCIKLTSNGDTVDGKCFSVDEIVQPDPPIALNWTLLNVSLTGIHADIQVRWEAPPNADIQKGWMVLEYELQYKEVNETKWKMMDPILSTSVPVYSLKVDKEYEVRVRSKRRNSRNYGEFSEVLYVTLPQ
The description is as above. How it is done: as §1, §2, §3

The target in test [5] is T1, human GHR (as in Tables 1 and 2). In words: Biacore, Fab, 37 C. A general note: In SPR one partner is held on a chip, and binding of the other changes the refractive index at the surface.
The target in test [6] is T4, hGHR-hFc fusion protein (R&D Systems Catalog#1210-GR) (human, UniProt P10912 19-264).
T4 construct: bought; also called hGHR/Fc; human GHR/hFc; not shown: human Fc of the bought fusion protein
T4 sequence: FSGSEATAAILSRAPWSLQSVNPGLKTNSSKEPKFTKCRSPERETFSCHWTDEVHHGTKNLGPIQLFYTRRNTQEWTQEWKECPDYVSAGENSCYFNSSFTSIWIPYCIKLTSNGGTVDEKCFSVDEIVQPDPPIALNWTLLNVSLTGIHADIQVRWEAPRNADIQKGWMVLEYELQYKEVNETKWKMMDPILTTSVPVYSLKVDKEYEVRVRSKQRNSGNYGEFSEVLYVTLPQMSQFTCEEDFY
In words: Biacore T200, hGHR-hFc captured on anti-human Fc, Fab as analyte, 37 C. Here is the method: An anti-human Fc sensor chip was prepared by activating all flow cells of a Biacore™ CM4 sensor chip with a 1:1 (v/v) mixture of 400 mM EDC and 100 mM NHS for 7 minutes, at a flow rate of 10 μL/min. […] All flow cells were blocked with 100 mM ethylenediamine in 150 mM borate buffer pH 8.5 for 7 minutes at 10 μL/min.
The kinetics assay was run using a methodology with varying dissociation times as described in Katsamba et al., supra. […] Flow cell 1 was used as a reference surface. Following capture of hGHR-hFc, analyte (buffer, SS1 Fab or Ab13 Fab) was injected at 30 μL/min on all flow cells for two minutes. After the analyte injection, dissociation was monitored for 30 minutes (400 nM Fab cycle) or 60 seconds (all other cycles) followed by regeneration with two 30-second injections of 75 mM phosphoric acid. A 5-membered dilution series of Fab was analyzed using this method, where the top concentration was 400 nM and the dilution factor was 3-fold. Buffer cycles were collected at both 30 minute and 60 second dissociation times for double-referencing purposes. The double-referenced sensorgrams were fit globally to a simple 1:1 Langmuir with mass transport binding model (with a local Rmax parameter for each flow cell).
as §3

Test [7] deals with T1, human GHR (as in Tables 1 and 2). The test is described as follows: Biacore, IgG2ΔA, 25 C.
Test [8] deals with T2, human GHR, his-tagged monomer of amino …. The test is described as follows: Biacore 2000, antibody captured on anti-human Fc, GHR as analyte, 25 C. Here is the method:
(§4) An anti-human Fc sensor chip was prepared by activating all flow cells of a Biacore™ CM4 sensor chip with a 1:1 (v/v) mixture of 400 mM ethyl-N-(3-[…])carbodiimide (EDC, Biacore™) and 100 mM N-hydroxysuccinimide (NHS, Biacore™) for 7 minutes, at a flow rate of 10 μL/min. […] All flow cells were blocked with 100 mM ethylenediamine in 150 mM borate buffer pH 8.5 for 7 minutes at 10 μL/min.
(§5) Antibodies were captured onto downstream flow cells (flow cells 2, 3 and 4) at 4 μg/mL at a flow rate of 10 μL/min for 1 minute. Different antibodies were captured on each flow cell. Flow cell 1 was used as a reference surface. Following capture of antibodies, analyte (buffer, human GHR or cyno GHR) was injected at 30 μL/min on all flow cells for two minutes. […] After the analyte injection, dissociation was monitored for 30 minutes (for the 400 nM GHR cycle) or 30 seconds (all other cycles) followed by regeneration of all flow cells with two 30-second injections of 75 mM phosphoric acid. A 5-membered dilution series of GHR was analyzed using this method, where the top concentration was 400 nM and the dilution factor was 3-fold. Buffer cycles were collected with both 30 minute and 30 second dissociation times for double-referencing purposes. The double-referenced sensorgrams were fit globally to a simple 1:1 Langmuir with mass transport binding model.
(§6) The experiments were performed at 25° C. using a running buffer of 10 mM HEPES, 150 mM NaCl, 0.05% (v/v) Tween-20™, pH 7.4.

Test [9] has as its target T3, cyno GHR, his-tagged monomer of amino …. Described as above. Here is the method: as §4, §5, §6
The target of test [10] is T2, human GHR, his-tagged monomer of amino …. In words: Biacore 2000, antibody captured on anti-human Fc, GHR as analyte, 25 C, replicate. How it is done:
as §4, §5, §6

The target in test [11] is T3, cyno GHR, his-tagged monomer of amino …. The test is described as above. Here is the method:
as §4, §5, §6

On to “human growth hormone (from UniProt P01241 27-217) (ligand)”, for which, in test [1], the STAT5 phosphorylation, fluorescent signal (Ave); 4.5 nM GH (fluorescent signal) was found to be 562 and the STAT5 phosphorylation, fluorescent signal (ave); 4.5 nM GH (fluorescent signal) amounted to 847.

B1: SS1 Fab (Fab, V domains shown)
VH: EVQLVESGGGLVKPGGSLRLSCAASGFTFSDAWMDWVRQAPGKGLEWVAEIRSKANYHATYYAESVKGRFTISRDDSKNTLYLQMNSLKTEDTAVYYCTLIRDYWGQGTLVTVSS
VL: EIVLTQSPGTLSLSPGERATLSCTATSSVSSSYLNWYQQKPGQAPRLLIYSTSNLASGIPDRFSGSGSGTDFTLTISRLEPEDFAVYYCHQYHRSTPTFGGGTKVEIK
notes: Fab
In the case of B1, the Kd was determined as 1.56 nM in test [2]; 1.6 nM in [3]; 3.2 nM in [4]; 1.6 nM in test [5]; 1 nM in [6]. The koff was 0.000215 s⁻¹ in test [3], 0.000576 s⁻¹ in [4] and 0.000359 s⁻¹ in test [6]. Besides, the kon in [3] was found to be 138000 M⁻¹ s⁻¹; in test [4], 182000 M⁻¹ s⁻¹; in test [6], 374000 M⁻¹ s⁻¹. Also, the figures for the “t 1/2” value in test [3], in test [4] and in [6] were 0.895 h, 0.333 h and 0.537 h, respectively.

B2: SS3 hIgG2Δa (antibody, V domains shown)
VH: EVQLVESGGGLVKPGGSLRLSCAASGFTFSDAWMDWVRQAPGKGLEWVAEIRSKANNHATYYAESVKGRFTISRDDSKNTLYLQMNSLKTEDTAVYYCTLFRDYWGQGTLVTVSS
VL: EIVLTQSPGTLSLSPGERATLSCTATSSVSSSYLNWYQQKPGQAPRLLIYSTSNLASGIPDRFSGSGSGTDFTLTISRLEPEDFAVYYCHQYHRFTPTFGGGTKVEIKR
notes: also called SS3 IgG2ΔA
B2 returned a Kd in test [7] of 1.7 nM.

B3: SS1 hIgG2Δa (antibody, V domains shown)
VH: EVQLVESGGGLVKPGGSLRLSCAASGFTFSDAWMDWVRQAPGKGLEWVAEIRSKANYHATYYAESVKGRFTISRDDSKNTLYLQMNSLKTEDTAVYYCTLIRDYWGQGTLVTVSS
VL: EIVLTQSPGTLSLSPGERATLSCTATSSVSSSYLNWYQQKPGQAPRLLIYSTSNLASGIPDRFSGSGSGTDFTLTISRLEPEDFAVYYCHQYHRSTPTFGGGTKVEIKR
notes: humanized IgG; also called SS1 (replicate)
On to B3, for which, in test [8], binding was characterised by a dissociation constant (Kd) of 1 nM, the koff was 7.7e-05 s⁻¹, the kon stood at 74000 M⁻¹ s⁻¹ and the “t 1/2” value was 2.5 h. For the same molecule, in test [9], the dissociation constant (Kd) came to 1.3 nM, the off-rate (koff) is 0.0001 s⁻¹, the on-rate constant (kon) was found to be 81000 M⁻¹ s⁻¹ and the “t 1/2” value came to 1.85 h. For the same molecule, in test [10], the Kd came to 0.8 nM, the koff stood at 6.4e-05 s⁻¹, the on-rate constant (kon) came to 77000 M⁻¹ s⁻¹ and the “t 1/2” value came to 3 h. Further, in [11], the dissociation constant Kd worked out at 1.2 nM, the off-rate (koff) was 0.00011 s⁻¹, the on-rate (kon) was determined as 89000 M⁻¹ s⁻¹ and the “t 1/2” value came out at 1.78 h.

B4: SS4 IgG2ΔA (antibody, V domains shown)
VH: EVQLVESGGGLVKPGGSLRLSCAASGFTFSDAWMDWVRQAPGKGLEWVAEIRSKANNHATYYAESVKGRFTISRDDSKNTLYLQMNSLKTEDTAVYYCTLYRDYWGQGTLVTVSS
VL: EIVLTQSPGTLSLSPGERATLSCTATSSVSSSYLHWYQQKPGQAPRLLIYSTSNLASGIPDRFSGSGSGTDFTLTISRLEPEDFAVYYCHQYHRSTPTFGGGTKVEIK
notes: IgG2ΔA
With B4, the dissociation constant Kd in [7] amounted to 43.1 nM.

B5: TM1 Fab (Fab, V domains shown)
VH: EVQLVESGGGLVKPGGSLRLSCAASGFTFSDAWMDWVRQAPGKGLEWVAEIRSKANYHATYYAESVKGRFTISRDDSKNTLYLQMNSLKTEDTAVYYCTLIRDYWGQGTLVTVSS
VL: EIVLTQSPGTLSLSPGERATLSCTATSSVSSWYLHWYQQKPGQAPRLLIYSTSNLASGIPDRFSGSGSGTDFTLTISRLEPEDFAVYYCHQYHRSTPTFGGGTKVEIK
notes: Fab
Take B5: the Kd in [2] and in test [5] was 3.4 nM throughout.

B6: SS3 Fab (Fab, V domains shown)
VH: EVQLVESGGGLVKPGGSLRLSCAASGFTFSDAWMDWVRQAPGKGLEWVAEIRSKANNHATYYAESVKGRFTISRDDSKNTLYLQMNSLKTEDTAVYYCTLFRDYWGQGTLVTVSS
VL: EIVLTQSPGTLSLSPGERATLSCTATSSVSSSYLNWYQQKPGQAPRLLIYSTSNLASGIPDRFSGSGSGTDFTLTISRLEPEDFAVYYCHQYHRFTPTFGGGTKVEIK
notes: Fab
B6: the Kd in test [2] and in test [5] was 1.99 nM each time.

B7: TM9 Fab (Fab, V domains shown)
VH: EVQLVESGGGLVKPGGSLRLSCAASGFTFSDAWMDWVRQAPGKGLEWVAEIRSKANYHATYYAESVKGRFTISRDDSKNTLYLQMNSLKTEDTAVYYCTLIRDYWGQGTLVTVSS
VL: EIVLTQSPGTLSLSPGERATLSCTATSSVSSSYLHWYQQKPGQAPRLLIYSTSNLASGIPDRFSGSGSGTDFTLTISRLEPEDFAVYYCHQYHRGTPTFGGGTKVEIK
notes: Fab
As to B7, the dissociation constant (Kd) in [2] and in test [5] was 3.3 nM throughout.
